Numbering of substitutions follows the chain as printed. Numbers in names are those of the source.
B1: COVA2-20 Y58F Fab (Fab, V domains shown)
VH: EVQLVESGGGLIQPGGSLRLSCAASGFTVSSNYMSWVRQAPGKGLEWVSVIYSGGSTFYADSVKGRFTISRDNSKNTLYLQMNSLRAEDTAVYYCASPLLLTPPDYYYYMDVWGKGTMVTVSS
VL: DVVMTQSPSSLSVSVGDRVTITCRASQGIRNDLGWYQQKPGKAPKRLIYAASSLQSGVPSRFSGSGSGTEFTLTISSLQPEDFATYYCLQHNSYLWTFGQGTKLEIK
B2: COVA2-20 Fab, F58 variant (heavy chain Y58F) (Fab, V domains shown)
VH: B1 VH
VL: B1 VL
notes: also called COVA2-20 F58
B3: COV107-23 F58Y Fab (Fab, V domains shown)
VH: EVQLVESGGGLIQPGGSLRLSCAASGFTVSSNYMSWVRQAPGKGLEWVSVIYSGGSTYYADSVKGRFTISRDNSKNTLYLQMNSLRAEDTAVYYCARDLGTGLFDYWGQGTLVTVSS
VL: DIQLTQSPSFLSASVGDRVTITCRASQGISSYLAWYQQKPGKAPKLLIYAASTLQSGVPSRFSGSGSGTEFTLTISSLQPEDFATYYCQQLDSYPPGTFGPGTKVDIK
B4: CC12.3 Fab, Y58 variant (heavy chain F58Y) (Fab, V domains shown)
VH: B3 VH with E1Q, N76S, A87V, L99F, T101D, G102F, L103Y
VL: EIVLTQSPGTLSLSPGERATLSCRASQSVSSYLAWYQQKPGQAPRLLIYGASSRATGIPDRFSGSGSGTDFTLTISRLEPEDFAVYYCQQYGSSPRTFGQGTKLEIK
notes: also called CC12.3 Y58
B5: CC12.3 F58Y Fab (Fab, V domains shown)
VH: B3 VH with E1Q, N76S, A87V, L99F, T101D, G102F, L103Y
VL: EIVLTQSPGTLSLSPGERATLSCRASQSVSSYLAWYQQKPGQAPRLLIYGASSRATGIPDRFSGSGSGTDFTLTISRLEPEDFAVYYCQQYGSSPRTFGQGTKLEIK

What was measured:
[1] = target: T1, Fc-tagged SARS-CoV-2 receptor-binding domain (RBD), wild type (SARS-CoV-2, Wuhan-Hu-1 (QHD43416.1), UniProt P0DTC2); experiment: BLI; Fc-tagged RBD (20 ug/ml) loaded on anti-hIgG Fc Capture (AHC) biosensors, Fab in solution at four to five concentrations; Octet Red96e, room temperature, 1x kinetics buffer (1x PBS pH 7.4, 0.01% w/v BSA, 0.002% v/v Tween 20); 1:1 binding model; conditions: both partners purified
T1 construct: also called SARS-CoV-2 RBD; WT RBD; not shown: Fc, C-terminal, kept

[2] = target: T2, Fc-tagged SARS-CoV-2 spike receptor-binding domain (RBD) (SARS-CoV-2, Wuhan-Hu-1 (QHD43416.1), UniProt P0DTC2); experiment: BLI; Fc-tagged RBD (20 ug/ml) loaded on anti-hIgG Fc Capture (AHC) biosensors, Fab in solution; room temperature; 1x PBS pH 7.4, 0.01% BSA, 0.002% Tween 20; 1:1 binding model; conditions: both partners purified
T2 construct: also called SARS-CoV-2 RBD; Fc-tagged RBD; source: Expi293F, transiently transfected, purified (KanCapA protein A resin); not shown: Fc (after an SSSSG linker), C-terminal, kept

Binder | Kd [1] | Kd [2]
B1 | 286 ± 17 nM | 
B2 |  | 286 nM
B3 | 362 ± 18 nM | 
B4 |  | 97 nM
B5 | 97 ± 2 nM | 
